This is an account of results in publication PMC6353875, “The EZH2 SANT1 domain is a histone reader providing sensitivity to the modification state of the H4 tail” (Scientific Reports, 2019).

Assay [1] has as its target T1, EZH2 SRM-SANT1 (residues 141–251) (human, UniProt Q15910 141-251).
T1 construct: Enhancer of Zeste Homologue 2 (EZH2), human, residues 141-251: stimulation response motif (SRM), linker and SANT1 domain; cDNA from OpenBiosystems; Uniformly 15N-enriched for the NMR titrations; untagged in the pull-down; also called EZH2 SANT1; source: E. coli Rosetta2 (DE3) pLysS, purified (glutathione agarose, PreScission cleavage, ion exchange, size exclusion); not shown: GST, N-terminal, …
The assay can be described thus: NMR titration; 15N-HSQC spectra of 0.05–0.10 mM 15N-EZH2 SRM-SANT1 with increasing concentrations of histone peptide; 25 °C; Kd from normalized CSPs, one-site model accounting for ligand depletion, averaged over significantly perturbed residues. The following applies: both partners purified.

Assay [2] deals with T1, EZH2 SRM-SANT1 (residues 141–251). Briefly: pull-down; 1 μg purified untagged SRM-SANT1 with 1 μg biotin-tagged H4 peptide overnight at 4 °C in 150 mM NaCl, 50 mM Tris (pH 6.5), 3 mM DTT; captured on streptavidin sepharose, four washes, coomassie staining; triplicates quantified with ImageJ. Particulars: both partners purified.

T1 sequence (Q15910 141-251): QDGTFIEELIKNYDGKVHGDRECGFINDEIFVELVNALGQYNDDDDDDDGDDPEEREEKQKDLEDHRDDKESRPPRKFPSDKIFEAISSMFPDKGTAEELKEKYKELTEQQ

B1: unmodified histone H2B peptide (residues 1–11) (peptide, UniProt P62807 2-12, looked up)
peptide: PEPAKSAPAPK
notes: histone H2B N-terminal tail, residues 1-11; also called H2B (1–11); H2B tail; source: synthetic peptide, bought: AnaSpec (65442-1)
Turning to B1, the “fold weaker than the H4 tail” value in assay [1] was roughly 20 fold.

B2: unmodified histone H4 peptide (residues 11–21) (peptide, UniProt P62805 12-22, looked up)
peptide: GKGGAKRHRKV
notes: histone H4, residues 11-21 (holds the basic patch); also called H4(11–21); source: synthetic peptide, custom synthesized by GenScript
On to B2, for which, in assay [1], the Kd was found to be 700 ± 200 µM.

B3: biotinylated unmodified histone H4 peptide (residues 11–27) (peptide, UniProt P62805 12-28, looked up)
peptide: GKGGAKRHRKVLRDNIQ
modifications: biotin (end not stated)
notes: histone H4, residues 11-27; also called unmodified H4 (11–27); source: synthetic peptide, bought: EpiCypher (SKU:12-0035)
With B3, in assay [2], the binding result is “binds”.

As a reminder, the Kd is the concentration at which binding is half-saturated. A high value points to weaker binding.
